Substrate in the data set: NCCSc1ccc(O)cc1
In words: Enzyme kinetics with monoamineoxidase (substrate disappearance by HPLC, Lineweaver-Burk). The class given is biochemical. The following applies: other: plasma monoamine oxidase, 0.005 unit/ml, pH 7.4, 37°C. On the procedure: Mushroom tyrosinase (400 units/mg) and plasma MAO (1000 units/gm) were obtained from Sigma Chemical Co. (St. Louis, MO, USA). A reaction mixture consisted of a substrate of 7 to 8 different concentrations (40 to 500 »M for mushroom tyrosinase and 20 to 200 »M for MAO) and of either mushroom tyrosinase (2.5 »g) or MAO (10 »g) in 1.0 mL of 0.05 M sodium phosphate buffer, pH 6.8 and 7.4 respectively. The reactions were carried out at 37°C in a shaking water bath, and stopped by taking 100 »L of the reaction mixture and adding it to 900 »L of 0.4 M HCLO₄. The disappearance of substrate was followed using HPLC (high pressure liquid chromatography) Km and Vmax values were calculated from the Lineweaver-Burk plots.

B1: plasma MAO (Bos taurus) (protein)
chain: REEGGVGSEEGVGKQCHPSLPPRCPSRSPSDQPWTHPDQSQLFADLSREELTTVMSFLTQQLGPDLVDAAQARPSDNCVFSVELQLPPKAAALAHLDRGSPPPAREALAIVFFGGQPQPNVTELVVGPLPQPSYMRDVTVERHGGPLPYYRRPVLLREYLDIDQMIFNRELPQAAGVLHHCCSYKQGGQKLLTMNSAPRGVQSGDRSTWFGIYYNITKGGPYLHPVGLELLVDHKALDPADWTVQKVFFQGRYYENLAQLEEQFEAGQVNVVVIPDDGTGGFWSLKSQVPPGPTPPLQFHPQGPRFSVQGNRVASSLWTFSFGLGAFSGPRVFDVRFQGERLAYEISLQEAGAVYGGNTPAAMLTRYMDSGFGMGYFATPLIRGVDCPYLATYMDWHFVVESQTPKTLHDAFCVFEQNKGLPLRRHHSDFLSHYFGGVAQTVLVFRSVSTMLNYDYVWDMVFYPNGAIEVKLHATGYISSAFLFGAARRYGNQVGEHTLGPVHTHSAHYKVDLDVGGLENWVWAEDMAFVPTAIPWSPEHQIQRLQVTRKQLETEEQAAFPLGGASPRYLYLASKQSNKWGHPRGYRIQTVSFAGGPMPQNSPMERAFSWGRYQLAITQRKETEPSSSSVFNQNDPWTPTVDFSDFINNETIAGKDLVAWVTAGFLHIPHAEDIPNTVTVGNGVGFFLRPYNFFDQEPSMDSADSIYFREGQDAGSCEINPLACLPQAATCAPDLPVFSHGGYPEY
notes: purchased Sigma Chemical Co. (St. Louis, MO, USA)
As usually defined, the Km is the concentration of substrate that gives half-maximal velocity. In the case of B1, the Km is 52.6 µM.

For the origin of these results see patent EP0526502B1, “PHENOLIC AMINE DEPIGMENTING AND ANTIMELANOMA AGENTS” (The Governors of the University of Alberta, priority 1990, dated 1991).
